Assay results as given in US20240239878A1 (SHANGHAI QILU PHARMACEUTICAL RESEARCH AND DEVELOPMENT CENTRE, published 2024).
Residue numbers refer to the chain shown, from its start. Like-named read-outs stand apart in the source and are kept apart here.

Key:
[1] = molecular target: T1, human DLL3 on SHP-77 cells (human, UniProt Q9NYJ7 27-618); assay: flow cytometry, SHP-77 cells
T1 construct: also called DLL3-expressing cells (SHP-77)
T1 sequence: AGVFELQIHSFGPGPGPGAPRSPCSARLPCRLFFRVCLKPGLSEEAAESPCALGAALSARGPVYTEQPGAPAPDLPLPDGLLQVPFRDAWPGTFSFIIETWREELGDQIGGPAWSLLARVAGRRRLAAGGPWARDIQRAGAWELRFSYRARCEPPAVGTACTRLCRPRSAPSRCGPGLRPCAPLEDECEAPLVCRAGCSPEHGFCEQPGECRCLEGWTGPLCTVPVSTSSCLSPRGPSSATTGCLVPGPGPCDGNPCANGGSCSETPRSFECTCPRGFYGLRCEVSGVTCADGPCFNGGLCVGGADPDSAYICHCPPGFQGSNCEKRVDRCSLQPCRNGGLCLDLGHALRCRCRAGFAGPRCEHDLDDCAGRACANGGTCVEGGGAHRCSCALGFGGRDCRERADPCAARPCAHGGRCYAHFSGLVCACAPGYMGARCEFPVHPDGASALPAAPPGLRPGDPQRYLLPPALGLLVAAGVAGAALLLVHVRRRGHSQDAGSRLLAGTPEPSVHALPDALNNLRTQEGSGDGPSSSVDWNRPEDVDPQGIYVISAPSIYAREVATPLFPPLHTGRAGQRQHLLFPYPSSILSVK
Procedure: SHP-77 cells were cultured. The culture medium for SHP-77 cells was RPMI1640+10% FBS. The cells were cultured in a T75 cell culture flask at a 37° C. 5% CO₂ incubator. When using cells, they are washed with sterile DPBS, digested with 0.25% trypsin EDTA for about 5 minutes, and then stopped with a complete medium.
(§1) The digested cells were centrifuged at 1000 rpm for 5 min at room temperature. The supernatant was discarded and the cells were resuspended in 100 μL of 1% BSA (in PBS). The cells were counted and adjusted to a cell density of 1E6/m. The dilute cells were plated in a 96-well round-bottom culture plate (corning 3799), and centrifuged at 1500 rpm for 5 min at 4° C. The supernatant was discarded and the cells were stored at 4° C. until use. Antibody samples to be tested were diluted with 1% BSA (in PBS) at a starting concentration of 100 nM, downwards by a 10-fold gradient for 7 concentrations. The cells were resuspended with the diluted antibody at 100 μL/well and incubated for 1 hour at 4° C. The cells were centrifuged at 1500 rpm for 5 minutes at 4° C. and the supernatant was discarded. The cells were resuspended and washed with 160 μL of 1% BSA (in PBS), centrifuged at 1500 rpm for 5 minutes at 4° C. The supernatant was discarded. The secondary antibody (goat anti human IgG Fc PE) was diluted 1:200 with 1% BSA (in PBS) according to the manufacturer's instructions and the cells were resuspended with the diluted secondary antibody, 100 µL/well, and incubated for 0.5 h at 4° C. The cells were centrifuged at 1500 rpm for 5 minutes at 4° C. and the supernatant was discarded. The cells were resuspended and washed with 160 μL of 1% BSA (in PBS), centrifuged at 1500 rpm for 5 minutes at 4° C. The supernatant was discarded. The cells were resuspended in 100 μL of 1% BSA (in PBS), and filtered across a 300 mesh gauze. The mean fluorescence intensity of the PE channels was measured by flow cytometry.
(§2) The analyzed mean fluorescence intensity was imported into Graphpad to analyze the median-binding concentration (hereinafter referred to as EC50) of antibody and cell and the top mean fluorescence intensity (Top MFI).

[2] = molecular target: T2, Cynomolgus monkey DLL3 on HEK293 cells (HEK293-cyno DLL3) (Cynomolgus monkey, UniProt Q9NYJ7 27-618 (human entry)); assay: flow cytometry, HEK293-cyno DLL3 cells
T2 chain: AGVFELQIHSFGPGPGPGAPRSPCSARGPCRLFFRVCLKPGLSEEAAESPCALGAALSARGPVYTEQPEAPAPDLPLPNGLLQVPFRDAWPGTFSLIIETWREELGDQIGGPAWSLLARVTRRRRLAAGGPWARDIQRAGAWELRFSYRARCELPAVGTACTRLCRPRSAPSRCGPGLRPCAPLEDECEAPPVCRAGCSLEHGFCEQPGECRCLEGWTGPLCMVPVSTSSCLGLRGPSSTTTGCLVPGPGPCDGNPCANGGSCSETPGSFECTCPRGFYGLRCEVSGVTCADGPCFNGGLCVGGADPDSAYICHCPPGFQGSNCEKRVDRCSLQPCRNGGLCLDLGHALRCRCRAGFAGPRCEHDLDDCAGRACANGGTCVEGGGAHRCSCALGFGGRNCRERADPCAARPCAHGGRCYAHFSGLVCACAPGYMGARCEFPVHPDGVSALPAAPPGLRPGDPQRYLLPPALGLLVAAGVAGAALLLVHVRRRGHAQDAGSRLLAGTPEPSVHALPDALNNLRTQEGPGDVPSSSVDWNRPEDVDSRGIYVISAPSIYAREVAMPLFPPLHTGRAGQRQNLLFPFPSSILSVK
Procedure: (§3) SHP-77 and HEK293-cyno DLL3 cells were cultured. The culture medium for SHP-77 cells were RPMI1640+10% FBS, and the culture medium for HEK293 cyno DLL3 cells were DMEM+10% FBS+200 μg/ml Hygromycin. The cells were cultured in a T75 cell culture flask at a 37° C. 5% CO₂ incubator. When using cells, they are washed with sterile DPBS, digested with 0.25% trypsin EDTA for about 5 minutes, and then stopped with a complete medium.
as §1, with “seeded” for “plated”, “μL/well,” for “µL/well,”
as §2

[3] = molecular target: T1, human DLL3 on SHP-77 cells; assay: flow cytometry, SHP-77 cells; remark: listed apart in the source
Procedure: as §3
as §1, with “seeded” for “plated”, “μL/well,” for “µL/well,”
as §2

[4] = molecular target: T1, human DLL3 on SHP-77 cells; assay: flow cytometry, SHP-77 cells; remark: listed apart in the source
Procedure: as §3, with “DLL3 cells was DMEM+10% FBS+200” for “DLL3 cells were DMEM+10% FBS+200”
as §1, with “seeded” for “plated”, “antibody.” for “antibody,”
as §2

B1: H1-39E2D11 mouse hybridoma-derived humanized anti-DLL3 antibody (antibody, V domains shown)
VH: QVQLVQSGAEVKKPGASVKVSCKASGYTFISYWITWVRQAPGQGLEWMGDIYPGSGSTTNYNEKFKSRVTMTRDTSTSTVYMELSSLRSEDTAVYYCARETTVGGAYAMDYWGQGTLVTVSS
VL: EIVLTQSPATLSLSPGERATLSCRASQSINNNLHWYQQKPGQAPRLLIYYVSQSISGIPARFSGSGSGTDFTLTISSLEPEDFAVYYCQQTNSWPLTFGGGTKLEIK
[1]
  EC50: 2.13 nM
  Top MFI: 1430 MFI

B2: H1-45E4D7 mouse hybridoma-derived humanized anti-DLL3 antibody (antibody, V domains shown)
VH: QVQLVQSGAEVKKPGASVKVSCKASGYTFTSHWITWVRQAPGQGLEWMGDIYPISGSTNNNEKFRNRVTMTRDTSTSTVYMELSSLRSEDTAVYYCAKIITVGGAYVMDYWGQGTLVTVSS
VL: B1 VL with L4M, L13V, I29V, N30R, D70E, E79Q, P80S, T91S
[1]
  EC50: 5.16 nM
  Top MFI: 1590 MFI

B3: hDLL3-276 camelid-derived humanized anti-DLL3 antibody (antibody, V domains shown)
VH: QVQLVESGGGVVQPGGSLRLSCAASGSTASTTYMGWFRQAPGKGREGVAIIYTARDNPWYADSVKGRFTISRDNSKNTLYLQMNSLRAEDTAVYYCAATLANPTRTAWGQGTLVTVSS
[2]
  EC50: 1.01 nM
  Top MFI: 148 MFI
[3]
  EC50: 0.389 nM
  Top MFI: 622 MFI

B4: 47E12D12-1 mouse hybridoma-derived anti-DLL3 chimeric antibody (antibody, V domains shown)
VH: EVQLVESGGGLVKPGGSLKLSCAASGFTFSDYGMHWVRQAPEKGLEWVAYISSGSSTIYYADTVKGRFTISRDNAKNTLFLQMTSLRSEDTAMYYCARNSRGFAYWGQGTLVTVSA
VL: DIVLTQSPAIMSASPGEKVTMTCSASSSVSYMYWYQQKPGSSPRLLIYDTSNLASGVPVRFSGSGSGTSYSLTISRMEAEDAATYYCQQWSSYPRTFGGGTKLEIK
[4]
  EC50: 1.45 nM
  Top MFI: 178 MFI

B5: 47E12D12-2 mouse hybridoma-derived anti-DLL3 chimeric antibody (antibody, V domains shown)
VH: B4 VH
VL: DIVLIQSPTIMSASPGEKVTMTCSASSSVSSMHWYQQKSGTSPKRWIYDTSKLASGVPARFSGSGSGTSYSLTISTMEAEDAATYYCQQWNSYHLTFGAGTKLELK
[4]
  EC50: 69.3 nM
  Top MFI: 455 MFI

B6: hDLL3-12-1 camelid-derived humanized anti-DLL3 antibody (antibody, V domains shown)
VH: QVQLVESGGGVVQPGRSLRLSCAASGFAFSSYDMHWVRQAPGKGLEWVSSISRDGRGPRYADSVKGRFTISRDNSKNTLYLQMNSLRAEDTAVYYCSKGYPIMGGTTQGTLVTVSS
[2]
  EC50: 2.36 nM
  Top MFI: 178 MFI
[3]
  EC50: 0.052 nM
  Top MFI: 690 MFI

B7: hDLL3-12-2 camelid-derived humanized anti-DLL3 antibody (antibody, V domains shown)
VH: B6 VH with G44D, L45F
[2]
  EC50: 1.35 nM
  Top MFI: 190 MFI
[3]
  EC50: 0.081 nM
  Top MFI: 804 MFI

B8: 39E2D11-2 mouse hybridoma-derived anti-DLL3 chimeric antibody (antibody, V domains shown)
VH: QVQLKQSGPGLVQPSQSLSITCTVSGFSLTSYGVHWVRQSPGKGLEWLGVIWSGGSTDYNAAFISRLSISKDNPKSQVFFKMNSLQADDTAIYYCARENYYGNSLWFFDVWGTGTTVTVSS
VL: DIVLTQSPATLSVTPGDSVSLSCRASQSINNNLHWYQQKSHESPRLLIKYVSQSISGIPSRFSGSGSGTDFTLTINSVETEDFGMYFCQQTNSWPLTFGAGTKLELK
[4]
  EC50: 8.63 nM
  Top MFI: 193 MFI

B9: 40G3D1 mouse hybridoma-derived anti-DLL3 chimeric antibody (antibody, V domains shown)
VH: QVQLQQSGAELVKPGASVKISCKASGYAFSSQWMNWVKQRPGKGLEWIGQIYPGNGDTNYNGKFKGKATLTADKSSSTAYIQLSSLTSEDSAVYFCARWFAYWGQGTLVTVSA
VL: B8 VL with A9V, I29V, N30R, T74S, M85V, T91S
[4]
  Top MFI: 369 MFI
